{"source": "paper PMC3025356", "about": "“Mechanism of the Ca^2+-Dependent Interaction between S100A4 and Tail Fragments of Nonmuscle Myosin Heavy Chain IIA” (Journal of Molecular Biology, 2011)", "molecules": {"B1": {"name": "M200: His-tagged human NM-MHC IIA residues Q1761-E1960, V1913I substitution (protein, UniProt P35579 1761-1960, looked up, variant V1913I)", "chain": "QINTDLNLERSHAQKNENARQQLERQNKELKVKLQEMEGTVKSKYKASITALEAKIAQLEEQLDNETKERQAACKQVRRTEKKLKDVLLQVDDERRNAEQYKDQADKASTRLKQLKRQLEEAEEEAQRANASRRKLQRELEDATETADAMNREISSLKNKLRRGDLPFVVPRRMARKGAGDGSDEEVDGKADGAEAKPAE", "modifications": "His tag", "notes": "His-tagged human NM-MHC IIA residues Q1761-E1960, V1913I substitution"}}, "key": {"[1]": {"assay": "Turbidity of M200 filaments", "type": "physicochemical", "experimental": "Absorption spectra were recorded using a Cary 50 spectrophotometer (Varian Ltd., Walton on Thames, UK). Protein concentrations were calculated from their absorbance at 280 nm, using molar coefficients of 2980 M^− 1 cm^− 1 (M200 and S100A4) and 1490 M^− 1 cm^− 1 (M111), based on their tyrosine content (two residues per chain and one residue per chain, respectively). Myosin fragments were measured in 0.5 M NaCl buffer, and care was taken to correct for the small contribution from turbidity. Protein concentrations are stated in terms of their monomeric polypeptide chain concentration. Under the conditions used for kinetic analysis, S100A4 is predominantly a dimer,[21,25] and M200 and M111 form stable coiled coils; therefore, the molar protein concentrations are half those given in all three cases. Fluorescence emission spectra were also checked, and those preparations containing a detectable shoulder at 340 nm due to contaminating tryptophan-containing proteins were subjected to further purification. F-M16^N concentrations were based on fluorescein absorbance (ɛ490 = 78,000 M^− 1 cm^− 1). […] Quin-2 concentrations were calculated from ɛ354 = 5000 M^− 1 cm^− 1 in the absence of Ca^2+.[39] Turbidity assays used to monitor M200 filament formation and solubilisation with manual mixing were carried out using a 10-mm pathlength and a 0.1-ml microcuvette (105.250-QS; Hellma, Southend on Sea, UK) at a wavelength of 300 nm. For determination of the free Ca^2+ concentration, Fura-2 fluorescence excitation spectra were measured in the same cuvette using the 2-mm path for excitation to minimise inner filter effects. […]\ny = m2*(1-((m0^m4)/(m0^ m4+m...\nFig. S5. (a) Turbidity of the M200 fragment (5\nM) as a function of [NaCl]. (b) Determination of the critical concentration of M200 in 100 mM NaCl, 10 mM Hepes, 0.1 mM Ca2+ at pH 7.5 and 20 °C. Aliquots of 1 or […]\nl of M200 were added to 1 ml buffer and the turbidity reading determined over a 30 s period. A linear fit to the data obtained above 0.3\nM indicated a critical concentration of 0.1 […]"}, "[2]": {"biological_target": "T1, S100A4 (Homo sapiens, UniProt P26447)", "T1 construct": "We used full-length S100A4 for this analysis; made in house; host or cells: Escherichia coli BL21(DE3)", "assay": "Competition of M32/M16^N with M200 for S100A4 (turbidity)", "type": "biochemical", "conditions": "turbidity competition", "experimental": "Fig. 9 Dissociation of M200 filaments by S100A4. (a) Initially, M200 was added (i) from a concentrated stock in 0.5 M NaCl to give a final concentration of 5 μM M200 (with respect to the polypeptide chain) in 100 mM NaCl, 10 mM Hepes, and 0.1 mM Ca^2+ at pH 7.5 and 20 °C. A biphasic rise in turbidity was recorded for 200 s (continuous line). Then 10 μM S100A4 (with respect to monomer concentration) was added (ii), followed by 0.2 mM EGTA (iii) and 1 mM Ca^2+ (iv). […] (b) M200 was diluted (i) into 100 mM NaCl to form filaments as in (a), then 5 μM S100A4 was added (ii), causing a 54% drop in turbidity. A further 5 μM S100A4 (iii) caused turbidity to fall to almost zero. (c) Stopped-flow records monitoring the dissociation of 5 μM M200 filaments on jumping [NaCl] from 100 mM to 120 mM NaCl. Other components of the buffer were 20 mM Hepes, 1 mM Mg^2+, and 100 μM Ca^2+ at pH 7.5 and 20 °C. […] In the presence of 20 μM S100A4 (lower trace), the turbidity decreased by 87% with a rate constant of 0.2 s^− 1.\nFurther information on Scheme 2 was obtained from competition assays. […] An independent estimate of K5 based on the Ca^2+ dependence of the turbidity assay yielded a value of 0.003 μM (see Supplementary Data).\nThe decrease in fluorescence, […]\nthat F-M16N binding was slightly faster. […]\nA second estimate was calculated from the apparent Ca2+ binding constant observed in the turbidity assay […]"}}, "note": "Several values for one entry are separate records, joined by “and”; a condition that tells them apart may be missing. Equal entries are not always repeated.", "data": [{"molecule": "B1", "values": [{"measurement": "NaCl midpoint of turbidity transition", "setting": "[1]; 5 μM M200", "value": "about 120 mM NaCl"}, {"measurement": "intercept (critical concentration) from 2.5-5 μM data only", "setting": "[1]; 100 mM NaCl", "value": 0.49, "unit": "µM"}, {"measurement": "critical concentration", "setting": "[1]; 100 mM NaCl, 10 mM Hepes, 0.1 mM Ca^2+, pH 7.5, 20 °C", "value": "~0.1 ± 0.04 µM and < 0.2 µM"}, {"measurement": "critical concentration (supplement)", "setting": "[1]; 100 mM NaCl, 10 mM Hepes, 0.1 mM Ca^2+, pH 7.5, 20 °C, fit above 0.3 μM", "value": 0.1, "unit": "µM"}, {"measurement": "binding relative to M32", "setting": "[2]", "value": "3 orders of magnitude tighter than M32"}]}]}
